Measurements reported in paper PMC3777949, “Dimerization Mediates Thermo-Adaptation, Substrate Affinity and Transglycosylation in a Highly Thermostable Maltogenic Amylase of Geobacillus thermoleovorans” (PLoS ONE, 2013).

Columns and labels:
[1] = substrate: OC[C@H]1O[C@@H]2O[C@H]3[C@H](O)[C@@H](O)[C@@H](O[C@H]4[C@H](O)[C@@H](O)[C@@H](O[C@H]5[C@H](O)[C@@H](O)[C@@H](O[C@H]6[C@H](O)[C@@H](O)[C@@H](O[C@H]7[C@H](O)[C@@H](O)[C@@H](O[C@H]1[C@H](O)[C@H]2O)O[C@@H]7CO)O[C@@H]6CO)O[C@@H]5CO)O[C@@H]4CO)O[C@@H]3CO; assay: DNSA reducing-sugar assay; type: biochemical, Geobacillus thermoleovorans; conditions: 100 mM sodium phosphate pH 7.0, 80°C, dimeric mutant
Excerpt: (§1) DNSA reducing-sugar assay on dimeric Gt-Mamy

[2] = substrate: OC[C@H]1O[C@@H]2O[C@H]3[C@H](O)[C@@H](O)[C@@H](O[C@H]4[C@H](O)[C@@H](O)[C@@H](O[C@H]5[C@H](O)[C@@H](O)[C@@H](O[C@H]6[C@H](O)[C@@H](O)[C@@H](O[C@H]7[C@H](O)[C@@H](O)[C@@H](O[C@H]8[C@H](O)[C@@H](O)[C@@H](O[C@H]1[C@H](O)[C@H]2O)O[C@@H]8CO)O[C@@H]7CO)O[C@@H]6CO)O[C@@H]5CO)O[C@@H]4CO)O[C@@H]3CO; assay: DNSA reducing-sugar assay; type: biochemical, Geobacillus thermoleovorans; conditions: 100 mM sodium phosphate pH 7.0, 80°C, dimeric mutant
Excerpt: as §1

B1: dimeric Gt-Mamy (Geobacillus thermoleovorans; D109E) (protein)
chain: MRKEAIHHRSTDNFAYAYDSETLHLRLQTKKHDVDHVELLFGDPYEWHDGAWQFQTMPMRKTGSDGLFDYWFAEVKPPYRRLRYGFVLRAGDEKLVYTEKGFYHEAPSEDTAYYFCFPFLHRVDLFQAPDWVKDTVWYQIFPERFANGNPAISPKGARPWGSEDPTPTSFFGGDLQGIIDHLDYLADLGITGIYLTPIFRAPSNHKYDTADYFEIDPHFGDKETLKTLVKRCHEKGIRVMLDAVFNHCGYEFAPFQDVLKNGAASRYKDWFHIREFPLQTEPRPNYDTFAFVPQMPKLNTAHPEVKRYLLDVATYWIREFDIDGWRLDVANEIDHEFWREFRQAVKALKPDVYILGEIWHDAMPWLRGDQFDAVMNYPFTDGALRFFAKEEISARQFADIMVRLLHSYPKHVNEAAFNLLGSHDTPRLLTICGDDVRKAKLLFLFQLTFTGSPCIYYGDEIGMTGGNDPECRKCMVWDPEKQNKELYEHVKQLIALRRQYRALRRGDVAFLAADDEANHLVYEKTDGNETVMIIINRSNEAAEIPMPIDARGKWLVNLLTGERFAAEAETLCVSLPPYGFVLYAVESW
notes: full length 588 aa, pCOLD I (Ni-NTA purified, tag kept), E. coli BL21(DE3); homodimer 145 kDa separated by Sephacryl S-200
For B1, the Km [1] was 0.21 mg/mL and the Km [2] was 0.60 mg/mL.
